The target in experiment [1] is T1, human glucagon receptor (human, UniProt P47871 26-477).
T1 construct: whole, on cells; Assayed as crude membranes of stably transfected HEK293 cells; also called hGcgR; GcgR
Briefly: SPA, displacement of [125I]-Gcg from hGcgR membranes, 0.1% bacitracin. The method, boiled down:
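Binding buffer: 25 mM HEPES pH 7.4, 2.5 mM CaCl₂, 1 mM MgCl₂, 0.003% Tween-20, protease inhibitors without EDTA. Counted by scintillation after 12 h incubation/settling at room temperature. Four-parameter nonlinear fit; Kᵢ given as geometric mean ± SEM of independent replicates run on different days.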

For experiment [2], the target named is T2, human glucose-dependent insulinotropic polypeptide (GIP) receptor (human, UniProt P48546 22-466).
T2 construct: whole, on cells; Assayed as crude membranes of stably transfected CHO cells; also called hGIPR; human GIP receptor
T2 sequence (looked up): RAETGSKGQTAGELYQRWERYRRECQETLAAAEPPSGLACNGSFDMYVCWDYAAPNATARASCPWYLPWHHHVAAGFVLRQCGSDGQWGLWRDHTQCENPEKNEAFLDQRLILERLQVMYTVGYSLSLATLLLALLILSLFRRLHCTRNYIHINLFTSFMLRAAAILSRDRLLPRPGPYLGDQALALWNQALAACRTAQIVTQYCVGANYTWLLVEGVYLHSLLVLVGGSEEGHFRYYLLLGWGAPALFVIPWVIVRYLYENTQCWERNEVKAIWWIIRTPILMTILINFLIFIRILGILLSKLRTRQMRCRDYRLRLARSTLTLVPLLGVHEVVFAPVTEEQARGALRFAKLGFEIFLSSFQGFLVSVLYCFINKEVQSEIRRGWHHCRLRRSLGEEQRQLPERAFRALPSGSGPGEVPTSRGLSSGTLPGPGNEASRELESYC
Briefly: SPA, displacement of [125I]-GIP from hGIPR membranes, 0.1% bacitracin.

Experiment [3] concerns the target T3, human GLP-1 receptor (human, UniProt P43220 24-463).
T3 construct: whole, on cells; Assayed as crude membranes of stably transfected HEK293 cells; also called hGLP1R; hGLP-1R
Briefly: SPA, displacement of [125I]-GLP-1 from hGLP-1R membranes, 0.1% bacitracin. In a few lines:
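Binding buffer: 25 mM HEPES pH 7.4, 2.5 mM CaCl₂, 1 mM MgCl₂, 0.1% bacitracin, 0.003% Tween-20, protease inhibitors without EDTA. Four-parameter nonlinear regression; Kᵢ given as geometric mean ± SEM, n = independent replicates run on different days.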
In general terms: Loss of bound radioactivity is the signal in a displacement assay; it reports binding, not function.

Here are results for two molecules from patent US20210032299A1 (Eli Lilly, published 2021).

Starred links: 1 amine or outer side, 2 acyl side, 3 side chain; linkers in the order of their positions; H or OH if unused. Non-standard residues stand in square brackets, D forms with d. Groups on a side chain read outwards from the residue. No end group written: not given here. *: point of attachment. C20 diacid = O=C(O)CCCCCCCCCCCCCCCCCCC(=O)*; γGlu = O=C(O)[C@H](CCC(=O)[*:2])N[*:1]; αMeL = CC(C)C[C@](C)(N)C(=O)O; AEEA = NCCOCCOCC(=O)O; Aib = CC(C)(N)C(=O)O

T1 sequence (P47871 26-477): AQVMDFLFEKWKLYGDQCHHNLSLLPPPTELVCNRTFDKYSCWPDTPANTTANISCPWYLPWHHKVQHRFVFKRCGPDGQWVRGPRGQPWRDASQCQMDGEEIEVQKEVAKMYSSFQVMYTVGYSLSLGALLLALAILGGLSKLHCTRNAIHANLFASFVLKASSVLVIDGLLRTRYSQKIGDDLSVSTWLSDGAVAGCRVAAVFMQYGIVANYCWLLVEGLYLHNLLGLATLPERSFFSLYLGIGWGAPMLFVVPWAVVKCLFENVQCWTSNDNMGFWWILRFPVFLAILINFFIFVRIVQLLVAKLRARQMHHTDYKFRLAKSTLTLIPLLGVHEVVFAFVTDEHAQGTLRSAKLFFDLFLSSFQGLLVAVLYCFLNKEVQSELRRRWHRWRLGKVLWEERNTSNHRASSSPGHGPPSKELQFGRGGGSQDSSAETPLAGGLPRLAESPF

B1: Example 71 (peptide)
peptide: Y[Aib]EGTFISDYSI[αMeL]LDKK([AEEA-AEEA-γGlu-C20 diacid])HQ[Aib]DFVEWLLETGPSSGAPPPS-NH2
modifications: N-terminus assumed
SMILES: CC[C@H](C)[C@H](NC(=O)[C@H](Cc1ccccc1)NC(=O)[C@@H](NC(=O)CNC(=O)[C@H](CCC(=O)O)NC(=O)C(C)(C)NC(=O)[C@@H](N)Cc1ccc(O)cc1)[C@@H](C)O)C(=O)N[C@@H](CO)C(=O)N[C@@H](CC(=O)O)C(=O)N[C@@H](Cc1ccc(O)cc1)C(=O)N[C@@H](CO)C(=O)N[C@H](C(=O)N[C@@](C)(CC(C)C)C(=O)N[C@@H](CC(C)C)C(=O)N[C@@H](CC(=O)O)C(=O)N[C@@H](CCCCN)C(=O)N[C@@H](CCCCNC(=O)COCCOCCNC(=O)COCCOCCNC(=O)CC[C@H](NC(=O)CCCCCCCCCCCCCCCCCCC(=O)O)C(=O)O)C(=O)N[C@@H](Cc1c[nH]cn1)C(=O)N[C@@H](CCC(N)=O)C(=O)NC(C)(C)C(=O)N[C@@H](CC(=O)O)C(=O)N[C@@H](Cc1ccccc1)C(=O)N[C@H](C(=O)N[C@@H](CCC(=O)O)C(=O)N[C@@H](Cc1c[nH]c2ccccc12)C(=O)N[C@@H](CC(C)C)C(=O)N[C@@H](CC(C)C)C(=O)N[C@@H](CCC(=O)O)C(=O)N[C@H](C(=O)NCC(=O)N1CCC[C@H]1C(=O)N[C@@H](CO)C(=O)N[C@@H](CO)C(=O)NCC(=O)N[C@@H](C)C(=O)N1CCC[C@H]1C(=O)N1CCC[C@H]1C(=O)N1CCC[C@H]1C(=O)N[C@@H](CO)C(N)=O)[C@@H](C)O)C(C)C)[C@@H](C)CC
As a reminder, the Ki is a measure of affinity in units of concentration, obtained from inhibition or displacement. A lower Ki goes with higher affinity. Take B1: the inhibitory constant (Ki) came to 102 nM in experiment [1], 0.0422 nM in experiment [2] and 347 nM in experiment [3].

B2: Example 72 (peptide)
peptide: Y[Aib]EGTLISDYSI[αMeL]LDKK([AEEA-AEEA-γGlu-C20 diacid])HQ[Aib]EFVEYLLETGPSSGAPPPS-NH2
modifications: N-terminus assumed
SMILES: CC[C@H](C)[C@H](NC(=O)[C@H](CC(C)C)NC(=O)[C@@H](NC(=O)CNC(=O)[C@H](CCC(=O)O)NC(=O)C(C)(C)NC(=O)[C@@H](N)Cc1ccc(O)cc1)[C@@H](C)O)C(=O)N[C@@H](CO)C(=O)N[C@@H](CC(=O)O)C(=O)N[C@@H](Cc1ccc(O)cc1)C(=O)N[C@@H](CO)C(=O)N[C@H](C(=O)N[C@@](C)(CC(C)C)C(=O)N[C@@H](CC(C)C)C(=O)N[C@@H](CC(=O)O)C(=O)N[C@@H](CCCCN)C(=O)N[C@@H](CCCCNC(=O)COCCOCCNC(=O)COCCOCCNC(=O)CC[C@H](NC(=O)CCCCCCCCCCCCCCCCCCC(=O)O)C(=O)O)C(=O)N[C@@H](Cc1c[nH]cn1)C(=O)N[C@@H](CCC(N)=O)C(=O)NC(C)(C)C(=O)N[C@@H](CCC(=O)O)C(=O)N[C@@H](Cc1ccccc1)C(=O)N[C@H](C(=O)N[C@@H](CCC(=O)O)C(=O)N[C@@H](Cc1ccc(O)cc1)C(=O)N[C@@H](CC(C)C)C(=O)N[C@@H](CC(C)C)C(=O)N[C@@H](CCC(=O)O)C(=O)N[C@H](C(=O)NCC(=O)N1CCC[C@H]1C(=O)N[C@@H](CO)C(=O)N[C@@H](CO)C(=O)NCC(=O)N[C@@H](C)C(=O)N1CCC[C@H]1C(=O)N1CCC[C@H]1C(=O)N1CCC[C@H]1C(=O)N[C@@H](CO)C(N)=O)[C@@H](C)O)C(C)C)[C@@H](C)CC
As for B2, the Ki was 837 nM in experiment [1], 0.0594 nM in experiment [2] and 437 nM in experiment [3].
